The target in experiment [1] is mouse Claudine18.2 (mouse) (UniProt P56857). Kind of experiment: FACS on CHOK1-m18.2 cells.
For experiment [2], the target named is Rhesus monkey Claudine18.2 (Rhesus monkey) (UniProt F6YQY3). Kind of experiment: FACS on CHOK1-rh18.2 cells.
For experiment [3], the target named is human Claudin18.1 (CLDN18.1) (human) (UniProt P56856). Kind of experiment: FACS on CHOK1-18.1 cells.

The values below come from patent US20230095569A1.

human Claudin18.1 (CLDN18.1) (human), sequence (P56856 whole entry): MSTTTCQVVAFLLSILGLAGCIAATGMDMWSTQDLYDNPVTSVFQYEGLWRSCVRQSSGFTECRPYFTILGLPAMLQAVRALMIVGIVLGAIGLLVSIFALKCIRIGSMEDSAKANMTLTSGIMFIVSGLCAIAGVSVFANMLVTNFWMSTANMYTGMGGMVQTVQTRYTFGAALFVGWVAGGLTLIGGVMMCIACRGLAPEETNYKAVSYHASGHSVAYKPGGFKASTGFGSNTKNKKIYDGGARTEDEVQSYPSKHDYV

B1: Ab15 (antibody, V domains shown)
VH: EVMLVESGGDLVKPGGSLKLSCAASGFTFSTYTMSWVRQTPEKRLEWVATIVGGGGYTYYLDSVKGRFTISRDNAKNTLYLQMISLRSEDTALYYCARMGLTQRNALDYWGQGTSITVSS
VL: DIVMTQSPSSLSVSEGEKVTLNCKSSQSLFNSGNQKNYLAWYQQKPGQPPKLLIYGASTRESGVPDRFTGSGFGTDFTLTISSVQAEDLAVYYCQNDHTYPLTFGAGAKLELK
With B1, the results for the FACS MFI in experiment [1] and in experiment [2] were 12200 and 6320, respectively.

B2: Ab36 (antibody, V domains shown)
VH: EVKLEESGGGLVQPGGSMKLSCVASGFTFSNYWMNWVRQSPEKGLEWVAQIRLKSDNYATHYAESVKGMFTISRDDSKSSVYLQMNNLRAEDTGIYYCTAGGDYWGQGTTLTVSS
VL: DIVMTQSQKFMSTTVGDRVSITCKASQNVGTAVAWYHQKPGQSPKLLIYSASNRYTGVPDRFIGSGSGTDFTLTISNVQSEDLGNYFCQQYINYLLTFGSGTKLEIK
Take B2: the FACS MFI in experiment [1] amounted to 21600; in experiment [3], 4300; in experiment [2], 17400.

B3: Ab17 (antibody, V domains shown)
VH: QVQLKESGPGLVAPSQSLSITCTVSGFSLTSYAISWVRQPPGKGLEWLGEIWTGGGTNYNSALKSRLSISKDNSKSQVFLKMNSLQTDDTARYYCGRLSYGNSLDYWGQGTTLTVSS
VL: DIVMTQSPSSLTVTAGEKVTMSCKSSQSLLNSGNQKNYLTWYQQKPGQPPKLLIYWASTRESGVPDRFTGSGSGTDFTLTVSSVQAEDLAVYYCQNNFIYPLTFGPGTKLELK
On to B3, for which the results for the FACS MFI in experiment [1] and in experiment [2] were 13300 and 6680, respectively.

B4: Ab16 (antibody, V domains shown)
VH: EVMLVESGGGLVKPGGSLKLSCAASGFTFNSYTMSWVRQTPEKRLEWVATITVIGGNTYYLDSVKGRFTISIDNGKNTLYLQMSSLRSEDTALYYCARMGQTQRNAMDYWGQGTSVTVSS
VL: DIVMTQSPSSLSVSAGQKVTMRCKSSQSLLNSGNQKNYLAWYQQKLGQPPKLLIYGASTRESGVPDRFSGSGSGTDFTLTITSVQAEDLAVYYCQNDYSFPLTFGAGTKLELK
As for B4, the FACS MFI in experiment [1] amounted to 14300; in experiment [2] it was 6660.

B5: Ab38 (antibody, V domains shown)
VH: QIQLVQSGPELKKPGETVKISCKASGYTFTNYGMSWVKQAPGKGLKWMGWINTYSGVPTYADDFKGRFVFSLEASASTAYLQINNLKNEDAATYFCSRWSGPDPLEDHWGQGTTLTVSS
VL: QIVLTQSPAIMSASPGEKVTMTCTASLSLNYIHWYRQRSGTSPKRWIYDTSKLASGVPSRFSGSGSGTSYSLTISSMEAEDAATYYCQQWSSNPWTFGGGTKLEIK
As to B5, the FACS MFI was 20400 in experiment [1], 4470 in experiment [3] and 15600 in experiment [2].

B6: Ab02 (antibody, V domains shown)
VH: QVQLKESGPGLVAPSQSLSITCTVSGFSLTSYAINWVRQPPGKGLEWLGVIWTGGGTNYNSALKSRLSINKDNSKSQVFLKMNSLQTDDTARYYCARFYDGYYSWFAYWGQGTLVTVSA
VL: DIVMTQSHKFMSTSVGDRVSITCKASQDVGTAVTWYQQKPGQSPKLLIYWASTRHTGVPDRFTGSGSGTDFTLTISNVQSEDLADYFCQQYSSYPFTFGSGTKLEIK
On to B6, for which the FACS MFI in experiment [1] came out at 2040; in experiment [2] it was 1400.

B7: Ab18 (antibody, V domains shown)
VH: QVQLKESGPGLVAPSQSLSITCTVSGFSLTTYGINWVRQPPGKGLEWLGVIWGDGSTNYHSALISRLSISKDNSKSQVFLKLNSLQTDDTATYYCVKSSYYGNAMDYWGQGTSVTVSS
VL: DIVMTQSPSSLTVTAGETVTMSCKSSQSLLNSGNQKNYLTWYQQKPGQPPKLLIYWASTRESGVPDRFTGSGSGTDFTLTISSVQAEDLAVYYCQNVYSYPFTFGSGTKLEI
B7: the results for the FACS MFI in experiment [1] and in experiment [2] were 13500 and 7890, respectively.

B8: Ab21 (antibody, V domains shown)
VH: EVMLVESGGGLVKPGGSLKLSCAASGFTFSSYTMSWVRQTPEKRLEWVATIIGGYGNTYYVDSVKGRFTISRDSAKNTLYLQMISLRSEDTALYYCTRLGQTQRNAMDYWGQGTSVTVSS
VL: DILMTQSPSSLSVSAGEKVTMSCKSSQSLLNSGNQKNYLAWYQQKPGQPPKLLIYGASTRESGVPDRFTGSGSGTDFTLTISSVQAEDLAVYYCQNDYYYPFTFGAGTKLEL
Turning to B8, the FACS MFI in experiment [1] is 15200; in experiment [2], 8240.

B9: Ab19 (antibody, V domains shown)
VH: EVMLVESGGDLVKPGGSLKLSCAASGFSFSRYTMSWVRQTPEKRLEWVATVSVGSGNTYYLDSVKGRFTISRDNAKNTLFLQMSSLRSEDTALYYCARMGQTQRNAVDYWGQGTSVTVSS
VL: DIVMTQSPSSLSVSAGEKVTMSCKSSQSLFNSGNQKNYLAWYQQKPGQPPKLLIYGASTRESGVPDRFTGSGSGTDFTLTISNVQAEDLAVYLCQNDHSFPLTFGAGTKLEL
In the case of B9, the FACS MFI in experiment [1] was 13400; in experiment [2], 6290.

B10: Ab22 (antibody, V domains shown)
VH: EVMLVESGGGLVKPGGSLKLSCAASGFTFSSYTMSWVRQTPEKRLEWVATIIGGYGNTYYADSVKGRFTISRDSAKNTLYLQMISLRSEDTALYYCTRLGQTQRNAMDYWGQGTSVTVSS
VL: DILMTQSPSSLSVSAGEKVTMSCKSSQSLLNSGNQKNYLAWYQQKPGQPPKLLIYGASTRESGVPDTFTGSGSGTDFTLTISSVQAEDLAVYYCQNDYYYPFTFGAGTKLEL
B10: the FACS MFI in experiment [1] worked out at 15500; in experiment [2], 7330.

B11: Ab24 (antibody, V domains shown)
VH: EVKLVESGGGLVKPGGSLKLSCAGSGFTFSSYTMSWVRQTPEKRLEWVATITIGVNIYYLDSVKGRFTISRDNAKNTLYLQMNSLRSEDTALYYCTRLGQTQRNAMDYWGQGTSVTVSS
VL: DIVMTQSPTSLSVSAGEKVTMTCKSSQSLFNSGNQKNYLAWYQEKPGQPPKLLIYGASTRESGVPDRFTGSGSGTDFTLTISSVQAEDLAVYYCQNVHFYPFTFGAGTKLEL
As to B11, the results for the FACS MFI in experiment [1] and in experiment [2] were 12800 and 7520, respectively.

B12: Ab20 (antibody, V domains shown)
VH: EVMLVESGGGLVKPGGSLKLSCVASGFTFSSYTMSWVRQTPEKRLEWVATIIGGYGNTYYSDSVKGRITISRDSAKNTLYLQMISLRSEDTALYYCTRLGQTQRNAMDYWGQGTSVTVSS
VL: DILMTQSPSSLSVSAGEKVTMNCKSSQSLLNSGNQKNYLAWYQQKPGQPPKLLIYGASTRESGVPDRFTGSGSGTDFTLTISSVQAEDLAVYYCQNDYYYPFTFGAGTKLEL
With B12, the FACS MFI in experiment [1] is 13800; in experiment [2], 7050.
